Source: patent publication US7579150B1, “Mobile RNA acts as a signal to regulate plant growth and development” (Iowa State University Research Foundation, Inc., priority 2004, dated 2009)

T1: StBEL-05/POTH1 heterodimer (Solanum tuberosum)
T1 chain 1: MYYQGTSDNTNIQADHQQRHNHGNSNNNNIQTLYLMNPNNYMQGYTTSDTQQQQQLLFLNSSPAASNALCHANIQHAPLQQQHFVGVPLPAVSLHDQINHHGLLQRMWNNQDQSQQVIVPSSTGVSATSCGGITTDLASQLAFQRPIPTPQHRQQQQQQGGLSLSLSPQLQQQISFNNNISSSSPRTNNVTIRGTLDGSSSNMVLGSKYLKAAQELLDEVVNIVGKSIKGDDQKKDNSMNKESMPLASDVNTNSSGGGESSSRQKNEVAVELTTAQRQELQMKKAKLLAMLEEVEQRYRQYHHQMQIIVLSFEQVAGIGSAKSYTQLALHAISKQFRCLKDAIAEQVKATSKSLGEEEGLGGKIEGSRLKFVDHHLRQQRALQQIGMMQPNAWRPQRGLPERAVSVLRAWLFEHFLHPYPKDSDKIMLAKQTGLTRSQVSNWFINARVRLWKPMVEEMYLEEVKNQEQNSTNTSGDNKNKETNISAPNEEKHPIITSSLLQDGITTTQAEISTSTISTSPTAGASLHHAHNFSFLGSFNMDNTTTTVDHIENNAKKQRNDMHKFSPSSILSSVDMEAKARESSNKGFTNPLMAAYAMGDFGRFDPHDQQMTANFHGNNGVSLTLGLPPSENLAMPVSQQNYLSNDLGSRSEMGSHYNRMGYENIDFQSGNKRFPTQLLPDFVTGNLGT
T1 chain 2: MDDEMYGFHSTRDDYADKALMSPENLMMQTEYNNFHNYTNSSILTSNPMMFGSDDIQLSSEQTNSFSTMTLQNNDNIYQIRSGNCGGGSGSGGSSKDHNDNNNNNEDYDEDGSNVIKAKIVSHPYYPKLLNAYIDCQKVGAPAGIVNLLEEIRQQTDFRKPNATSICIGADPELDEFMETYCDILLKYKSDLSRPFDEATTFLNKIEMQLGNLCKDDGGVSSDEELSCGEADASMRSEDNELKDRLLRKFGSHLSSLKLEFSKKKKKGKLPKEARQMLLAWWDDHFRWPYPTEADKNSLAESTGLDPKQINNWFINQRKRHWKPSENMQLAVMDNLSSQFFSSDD

T2: StBEL-05 (Solanum tuberosum)
T2 chain: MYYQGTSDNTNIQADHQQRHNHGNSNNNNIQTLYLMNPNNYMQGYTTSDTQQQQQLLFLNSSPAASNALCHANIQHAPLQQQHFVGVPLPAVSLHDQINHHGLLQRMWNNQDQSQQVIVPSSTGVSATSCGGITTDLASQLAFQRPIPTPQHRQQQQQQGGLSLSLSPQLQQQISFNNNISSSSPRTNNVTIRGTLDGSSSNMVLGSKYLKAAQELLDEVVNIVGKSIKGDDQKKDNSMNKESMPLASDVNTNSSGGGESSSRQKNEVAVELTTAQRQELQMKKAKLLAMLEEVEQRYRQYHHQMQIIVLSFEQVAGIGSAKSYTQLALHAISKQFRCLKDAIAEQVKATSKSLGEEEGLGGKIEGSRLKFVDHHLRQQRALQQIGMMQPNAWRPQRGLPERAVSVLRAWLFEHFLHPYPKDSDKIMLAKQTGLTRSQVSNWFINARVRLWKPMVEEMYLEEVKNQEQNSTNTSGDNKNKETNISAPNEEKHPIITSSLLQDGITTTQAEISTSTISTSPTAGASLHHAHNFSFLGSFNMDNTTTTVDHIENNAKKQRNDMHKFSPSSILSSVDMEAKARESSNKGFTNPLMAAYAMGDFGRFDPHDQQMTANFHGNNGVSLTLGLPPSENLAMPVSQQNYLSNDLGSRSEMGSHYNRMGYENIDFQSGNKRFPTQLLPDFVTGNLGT

T3: POTH1 (Solanum tuberosum)
T3 chain: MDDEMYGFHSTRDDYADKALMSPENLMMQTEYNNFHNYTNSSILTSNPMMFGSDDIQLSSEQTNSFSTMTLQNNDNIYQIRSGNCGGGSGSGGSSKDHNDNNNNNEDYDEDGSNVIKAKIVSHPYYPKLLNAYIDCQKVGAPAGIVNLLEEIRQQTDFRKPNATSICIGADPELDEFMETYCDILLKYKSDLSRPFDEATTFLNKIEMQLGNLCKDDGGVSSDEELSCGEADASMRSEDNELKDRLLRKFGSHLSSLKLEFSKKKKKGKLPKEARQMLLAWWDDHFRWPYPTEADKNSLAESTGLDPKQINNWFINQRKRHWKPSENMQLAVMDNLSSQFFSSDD


Key:
StBEL-05 [1] = test: Yeast two-hybrid interaction of POTH1 deletion constructs with StBEL-05; assay type: cell-based, potato; conditions: yeast strain AH109
Excerpt: The Matchmaker two-hybrid system (Clontech, CA) was used for the yeast two-hybrid screen. Yeast transformation and plasmid rescue into DH5-a E. coli cells were according to the manufacturer's instructions. Full-length POTH1 was cloned into the pBridge (Clontech, CA) vector and used as bait to screen the potato (S. tuberosum ‘Desireé’) stolon cDNA library in pAD-GAL4-2.1 (Stratagene, Calif.). Positive interactions were confirmed by cotransforming yeast strain AH109 with each purified pAD plasmid and pBridge: POTH1 and plating on -leucine/-tryptophan (transformation control) and -leucine/-tryptophan/-histidine/-adenine (selection) nutrient medium. Induction of the AH109 reporter gene, lacZ, was measured with a yeast β-galactosidase assay kit (Pierce Chemicals). β-galactosidase activity (FIG. 9B) was determined from a known density of yeast cells and calculated as 1000×OD420/time of color reaction (minutes)×volume of yeast culture (ml)×OD600.
The StBEL-05 deletion constructs were amplified by PCR, then cloned into the vector, pGAD, in-frame with the GAL4 activation domain. POTH1 deletion constructs were amplified by PCR, and cloned into pBridge (Clontech) in-frame with the GAL4 binding domain. Sequencing of selected cDNAs and constructs was performed at the Iowa State University DNA Facility. […]

[2] = target: T1, StBEL-05/POTH1 heterodimer; test: EMSA; deduced consensus TGA(C/G)(T/A)TGAC; conditions: tags: GST cleaved by Factor Xa
StBEL-05 [3] = target: T2, StBEL-05; test: EMSA; conditions: tags: GST fusion from pGEX-5X-2, GST cleaved by Factor Xa
POTH1 = target: T3, POTH1; test: EMSA; conditions: tags: GST fusion from pGEX-5X-2, GST cleaved by Factor Xa

Molecule | interaction with StBEL-05 (StBEL-05 [1]) | binding result [2] | binding result (StBEL-05 [3]) | binding result (POTH1)
pBHD-9: POTH1 construct: first amino-terminal 114 aa, no KNOX domain sequence; transcriptional activator alone (protein) MKLLSSIEQACDICRLKKLKCSKEKPKCAKCLKNNWECRYSPKTKRSPLTRAHLTEVESRLERLEQLFLLIFPREDLDMILKMDSLQDIKALLTGLFVQDNVNKDAVTDRLASVETDMPLTLRQHRISATSSSEESSNKGQRQLTVSMDDEMYGFHSTRDDYADKALMSPENLMMQTEYNNFHNYTNSSILTSNPMMFGSDDIQLSSEQTNSFSTMTLQNNDNIYQIRSGNCGGGSGSGGSSKDHNDNNNNNEDYDEDGSN | Interaction with StBEL-05 was observed |  |  | 
P1 binding site oligo (dsDNA) DNA 1: TTGACTTGAC DNA 2: GTCAAGTCAA |  | binds | binds | binds
